From PMC3897220, “A comparative study of Whi5 and retinoblastoma proteins: from sequence and structure analysis to intracellular networks” (Frontiers in Physiology, 2013) come the findings set out here.

Assay [1] concerns the target Whi5 (Whi5Sc) motif 3, 245-267 (UniProt Q12416). Description: SPR, biotinylated motif 3 on streptavidin chip. Conditions: reference: unphosphorylated motif 1 peptide; sites T143,S154,S156,S161. (In general: Surface plasmon resonance follows binding to a sensor surface in real time, without labels.)
Assay [2] concerns the target T1, Whi5^Sc motif 3 peptide (residues 245-267), biotinylated (S. cerevisiae, UniProt Q12416 245-267, biotin (position not given)).
T1 construct: Whi5 of Saccharomyces cerevisiae, motif 3, residues 245-267 (Whi5^Sc numbering); Held on a streptavidin chip by its biotin; source: synthetic peptide (Primm, Milano, Italy)
T1 peptide (looked up): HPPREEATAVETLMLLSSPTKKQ
Description: SPR; BIAcore X; biotinylated motif 3 immobilised on streptavidin Sensor Chip SA (~1000 resonance units), reference cell saturated with biotin; analytes motif 1 and phospho-motif 1 at 20 to 340 uM; HBS-EP buffer, flow 5 ul/min. Conditions: both partners purified.

Turning to “Whi5 (Whi5Sc) motif 1, 136-162 (from UniProt Q12416) phospho-motif 1 peptide (pT143, pS154, pS156, pS161)”, the “binding against the reference” value in assay [1] is given as “weaker”.

B1: Whi5^Sc motif 1 peptide (residues 136-162) (peptide, UniProt Q12416 136-162, looked up)
peptide: MPLLPPTTPKSRRSEVFLSPSPRLRSP
notes: Whi5 of Saccharomyces cerevisiae, motif 1, residues 136-162 (Whi5^Sc numbering); source: synthetic peptide (Primm, Milano, Italy)
Regarding B1, the binding result in assay [2] is given as “binds”.
